“Also recorded” adds a separate entry of the source.
Columns and labels:
[1] = target: T1, Jurkat T cells expressing mPD1 (Mus musculus, UniProt Q02242); assay: Inhibition of anti-mouse PD1 mAb binding to mPD1-positive Jurkat T cells; type: cell-based; settings: mAb pre-incubated with different concentrations of JT-mPD1
T1 construct: expressed in transfected cells; host or cells: Jurkat E6.1 NF-kB::eGFP reporter T cells (human)
T1 sequence (Q02242 25-288): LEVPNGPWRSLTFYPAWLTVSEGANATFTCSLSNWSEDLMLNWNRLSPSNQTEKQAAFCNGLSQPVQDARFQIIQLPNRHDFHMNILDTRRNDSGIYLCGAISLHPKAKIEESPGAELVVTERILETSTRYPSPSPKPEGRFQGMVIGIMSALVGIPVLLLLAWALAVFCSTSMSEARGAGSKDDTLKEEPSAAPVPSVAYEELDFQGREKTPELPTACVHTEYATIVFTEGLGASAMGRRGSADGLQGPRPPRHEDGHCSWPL
Experimental: To produced T cells expressing mouse PD-1, Jurkat E6.1 NF-κB::eGFP reporter T cell line and the K562 stimulator cell line were cultured as previously described (Battin et al. PLoS One, 2017, 12(5):e0178220; PMID: 28542462). JE6.1 NF-kB::eGFP reporter cells expressing mouse PD-1 have been previously described (Jutz et al. Oncotarget, 2017, 8(39):64892-64906; PMID: 29029399). T cell stimulator cells, based on the K562 cell line (K562S), were generated by retrovirally transducing a CD5L-OKT3scFv-CD14 construct encoding an anti-human CD3 single chain fragment fused to human CD14 (Leitner et al. J. Immunol. Methods, 2010, 362(1-2):131-141; PMID: 20858499). K562S stimulate human T cells and T cell lines by ligating their TCR-CD3 complex. In order to separate stimulator cells from reporter cells, K562S were engineered to constitutively express a red fluorescent protein (RFP). […] To confirm cell surface expression of respective molecules, a PE-conjugated anti-mPD-1 antibody (29F.1A12) from Biolegend (San Diego, CA) was used. Membrane-bound anti-CD3 fragment on K562S cells was detected with a PE-conjugated goat-anti-mouse IgG (H+L) antibody (Jackson ImmunoResearch, West Grove, PA). […] Data was analysed using FlowJo software (version 10.0.8., Tree Star, Ashland, OR) and Graphpad Prism (version 5, GraphPad Software, Inc., La Jolla, CA). […]

[2] = tested on: rat anti-mouse PD1 monoclonal antibody (mAb) (Biolegend, clone 29F.1A12); assay: Colony blot assay of E. coli clones expressing GST-fused overlapping mPD1 peptides; type: binding; settings: GST-fused 15-mer
Description: The protein sequence corresponding to the extracellular domain of mouse PD-1 (Q02242; Uniprot) was electronically back-translated into DNA sequences (ATG:Biosynthetics GmbH; Merzhausen, Germany). The protein-coding DNA sequences were partitioned into uniformly sized peptide-CDS as overlapping peptides in 15 amino acids (aa) length, with an offset of 3 aa, and the resulted DNA sequences were inserted into the expression vector pEPX-1 (ATG:Biosynthetics GmbH; Merzhausen, Germany). […] Expression vectors were used for transformation of E. coli strain BL21. Colonies (clones) of E. coli harbouring the expression vectors were picked from plates supplemented with Kanamycin and used for screening by colony blot assay. A colony harbouring the expression vector with no insert (i.e. control) was also picked.
The clones of interest were replicated onto nitrocellulose membranes and lysed with lysis solution (Tris-HCl pH 8.0 50 mM, Lysozyme 200 μg/ml), followed by three cycles of freezing at −80C and thawing at 37C. After the last step of thawing, the membranes were incubated with the blocking solution containing PBS-5% skim milk. The blocking solution was discarded and the membranes were incubated for 2 h at RT with rat anti-mouse PD1 monoclonal antibody (mAb) (Biolegend, clone 29F.1A12). […]

## ISLHPKAKIEESPGA (listed as Mus musculus) [JT-mPD1, amino acid residues 126-140 of mouse PD1 (Uniprot Q02242)]
[1]
  inhibition of binding of anti-mouse PD1 mAb to mPD1-positive Jurkat T cells: dose-dependently inhibited; also recorded: inhibited dose-dependently
[2]
  reactivity to the rat anti-mouse PD1 monoclonal antibody: reactive
